For series [1], the target named is H3.3/H4 (Homo sapiens (H3.3); Xenopus laevis (H4)) (UniProt P84243+P62799). In words: competition. To be noted: 20 mM HEPES pH 7.5, 150 mM NaCl, 0.5 mM TCEP, 0.001% Tween-20, 1 mg/ml BSA; 10 nM probe; temperature not stated.
The target of series [2] is H3/H4 (Homo sapiens) (UniProt P84243). To be noted: cited from earlier work.
The target in series [3] is HIRA-WB/UBN1-NM complex (human) (UniProt P54198). As to the kind of experiment: AUC; sedimentation velocity of the HIRA-WB/UBN1-NM/H3.3/H4 SEC peak at three loading concentrations, 4 °C, 20 mM HEPES pH 6.95, 500 mM NaCl, 0.5 mM TCEP; global fit in Sedphat to monomer-dimer self-association: 2:2:2:2 assembly to 1:1:1:1 assemblies.
The target of series [4] is H3.3/H4 heterodimer (human | X. laevis) (UniProt P84243). In words: AUC; sedimentation equilibrium of H3.3/H4 alone, 4 °C, three loading concentrations, 15,000, 25,000 and 30,000 rpm, 20 mM HEPES pH 7.5, 100 mM NaCl, 100 mM KCl, 2 mM MgCl2, 1 mM EDTA, 0.05% Brij-35; monomer-dimer model: (H3.3/H4)2 tetramer to H3.3/H4 heterodimers.
In series [5] the target is ASF1a-C labelled with fluorescein-5-maleimide (human) (UniProt Q9Y294). As to the kind of experiment: fluorescence polarisation; direct binding: protein titrated into 10 nM fluorescently labelled ASF1a-C probe; 20 mM HEPES pH 7.5, 150 mM NaCl, 0.5 mM TCEP, 0.001% Tween-20, 1 mg/ml BSA; one-site total binding model. (In fluorescence polarisation assays a small probe gives low polarisation when free and higher when bound to something large.)

For series [6], the target named is HIRA-WB/UBN1-NM/H3.3/H4 complex (human | X. laevis) (UniProt P54198). As to the kind of experiment: AUC; sedimentation velocity of the HIRA-WB/UBN1-NM/H3.3/H4 SEC peak at three loading concentrations, 4 °C, 20 mM HEPES pH 6.95, 500 mM NaCl, 0.5 mM TCEP; global fit in Sedphat to monomer-dimer self-association: 2:2:2:2 assembly to 1:1:1:1 assemblies.
Series [7] concerns the target ASF1a-C labelled with Alexa Fluor 488 (human) (UniProt Q9Y294). In words: fluorescence polarisation; direct binding: protein titrated into 10 nM fluorescently labelled ASF1a-C probe; 20 mM HEPES pH 7.5, 150 mM NaCl, 0.5 mM TCEP, 0.001% Tween-20, 1 mg/ml BSA; one-site total binding model.
In series [8] the target is H3.3/H4 (Homo sapiens) (UniProt P84243). The following applies: cited from earlier work.

The Ki is a dissociation constant, usually derived from enzyme kinetics or from competition with a known ligand. Low readings indicate a stronger hold on the target, high ones a looser hold on the target. For orientation: Kd means the constant that tells how readily two partners part at equilibrium. The stoichiometry N is a count of units in the complex or per binding partner.

Chain of ASF1a-C labelled with Alexa Fluor 488 (human) (Q9Y294 1-156): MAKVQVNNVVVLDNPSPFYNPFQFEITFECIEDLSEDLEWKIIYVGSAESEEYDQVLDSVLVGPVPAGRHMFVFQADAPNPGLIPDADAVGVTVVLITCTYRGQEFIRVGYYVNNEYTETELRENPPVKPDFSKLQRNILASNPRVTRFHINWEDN
Chain of ASF1a-C labelled with fluorescein-5-maleimide (human) (Q9Y294 1-156): as above
Chain of ASF1a (Q9Y294 whole entry): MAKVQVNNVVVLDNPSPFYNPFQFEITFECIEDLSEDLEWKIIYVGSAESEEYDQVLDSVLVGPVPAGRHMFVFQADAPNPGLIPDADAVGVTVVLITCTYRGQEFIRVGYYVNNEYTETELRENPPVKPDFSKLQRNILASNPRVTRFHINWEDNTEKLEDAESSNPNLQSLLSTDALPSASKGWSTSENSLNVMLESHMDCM

60 bp dsDNA competitor came in with a Ki in series [1] of 0.28 µM.

For ASF1a (from UniProt Q9Y294), in series [2], the Kd is 0.0025 µM.

In turn, “H3.3/H4 heterodimer (from UniProt P84243 1-136; P62799 1-103) (complex)” registered a stoichiometry N in series [3] of 1. Besides, in series [4], the Kd turned out to be 6 µM and the stoichiometry N stood at 2. “H3.3/H4 heterodimer (from UniProt P84243 1-136; P62799 1-103) (complex; other documents disagree on this pair)”: the Kd in series [5] turned out to be 0.28 µM.

On to “HIRA-WB/UBN1-NM/H3.3/H4 complex (from UniProt P54198 1-473; Q9NPG3 1-584; P84243 1-136; P62799 1-103)”, for which, in series [6], the Kd stood at 6 µM and the stoichiometry N is 2.

Substance “HIRA-WB/UBN1-NM/H3.3/H4 complex (from UniProt P54198 1-473; Q9NPG3 1-584; P84243 1-136; P62799 1-103) (complex; other documents disagree on this pair)” showed a Kd in series [7] of 1 µM.

As to UBN1 (from UniProt Q9NPG3), the equilibrium dissociation constant (Kd) in series [8] is 7 µM.

Source of the values: PMC11388340.
